B1: Promoter of RAFL06-16-J10: environmental stress responsive promoter DNA, SEQ ID NO: 5, upstream of At2g06050 (OPR3 gene) (nucleic acid, listed as Arabidopsis thaliana)
DNA: CCTGGGACTTGGGCTGAGAATAATGAAGTGGCTGGGAAATGATTAGTTAAGGATGGCTTGATGAATTCTCAATATTCTGTTGAGGGAACAAAATATACTAGGAAGGATGCAAGTCCAGTTTGGTCTAAACCATTGTACGAACCAAAAACAATCAATAAAGTAACTCAGGGCTCACAAATGGTCGATAATATTTCTAAAGTTTCAGTTCTAGAGGATGAGCAAAAGGATTTGATGATGGGAGATGTACTAGAGGTACAAGACAAGAGTCTCACTGAAGGGTTGAATTTCAGATATTTTAAATCACGTTTGGAGTAACAAAAAACAAATGTGAGAAGGAGCTCAATTAGCTCCAACTGAATCTAGTGTTATTAGGGATACTTTGGAAACTCCAATTCAATCTTTAAGATGTAGGATTGATGAATTCATGGAAATCGGCAGATCCATCTATGAATTTAGTATGGTGGTGTTTCCTAGGAATTGACAATACAATTTTACTTGGTGCAAAGTGTCTTCGGAGGTGTCCCTTTCTTTTTCACTCGGAATTGGAAGTTTTAATATTGGCAATAAAAAATATCCTTTCAAGAAGGATAAAGTGTCAGGCATTTGAAACAGATAATTATTCAGAGTAAGTTTTGATGGTACAGTCCCCTGAAGAATGACTCGCTTTCTCTAATTTTTTAGAAGATCTTGAATTGCTATGTGTCTCCTTTTCTTGCTTTCTTCTATTTCATGTTTATGTAATACTAAGGCAAACTATTTAGCACAATATTCTAAACTTTTATTTTCTGAAGTTATTTTTTAAACCCTTTCCCTCCTAATTGGACAACCAATCATGGAATTAGTTTTTACGTAATGTTTTAAACTCACTATTTCACCTTTATTCTGACCTGTTAATGGAAGACAACTATGACTTTATACATTGAAATGTTGTCAACCTGTTATATATTAATGTTAACATAGCTAATGACCTATCAATGTACGTAAAGCGAATGTCAATCATATTCGTATCCGTTAATTTCATTTAGGAAATCAGGCTCATTGCCAATCCACTAAGAAACATCTCTGATAGATCCAAATAATAAAAATAATATAATATGAAGCAAAATAGAACGAAATATCTCACGCGGACCAAACTTTGAACTTTATTATAAAACAAATCAGCACGTGAAAGTAATGGTCGGTTCGGTCCAAGATGCCAAGAACTCCTCCGGTCCATCCATCAACCTAACCTTTTTTGGATATAAAATTTAGCAAATTCCATTTCCACGACCACACAACAACAACACATCCACTCGAATTTTCTATTTCCGAATAACAAAACCGGTAAACTCATCACAAACTTAAGTTACTTTGTAGTTTGTGTTTTGTCCTTTTATGTAATGAAGAAGATCCAACTAACTACTACTCAATATTTTTGTATTGACCGTTGATTTCTCAGATCTGACTTTTACTTCTCCTTCTTCCAGATCGGCGGAGAC
B2: Promoter of RAFL07-08-I12: environmental stress responsive promoter DNA, SEQ ID NO: 6, upstream of At2g26530 (homolog of calmodulin-binding protein) (nucleic acid, listed as Arabidopsis thaliana)
DNA: CGGGTTTTATTTTGGAATTGGGTTATATGGTGGATGTATTTGAATCAATATTTATAAAAATTTAACAATTATCTCATGGATTCGTGGTATAACGTTACCTAATAACAATTATAAACTGTAAAATAAAAATATTTTATAAAAATAAAATTTGCAAGTTTTAATATATATTACTTTTAAAAAATAAATCGTCCCGCGGTATACCGCGGGTTAAAATCTAGTCTATGTTTATTATAAAAGAATACAATGTATTAATGTATAAATTATCTTATGCATGAGCACGATGATCATCTAGTAGTATACATCTTACCCGTCGACAAAAACAAAATGTTCCTTATCCAGTATCTAGATGGATCGTGTGAACTCAATTCTACGTAGAACACAAAAGTCCTCTCGTTTGGTCACTGAATTAATTTGAACGATATTATTTATTAGGACCACCGGTTAAATTGGCCTCGTGGTCTAAATATGCCTTCGAATGGTCCAACAACCATGTGGTCAATGCCGACTATGAAAATGACTGAAAATTCAAAACATGTAAGTGGGTTACCACCACTTATCATTATGTTCCAAATCGTTTGCATTAAACAACTTTATTTCGACACATGCGGTCTGAAAAGGCGGCCAATTAATTTACGTTAATCATCGTTTACTATTATTATCTTCGGAATATTTCCAACACAATCAATCTAGTTGGTTCCAATTCTCATCACATATTTTATTTTATAGTTTAAAGTCTTTCAATTCAGTAGTCTAACTGTATAACATATGACTTCGAACAGATTGATATAGACCACTCAATCTAATAATATCGTTTTAGCTACGAAGAGTATACAAAAAAAGCTAGTTGGATAGTTTAAAAATTAAATGCTAGAAGAATGTTGGATATATCAAACAATAAAATTAATATTTAGAGAGAAAATATCGTAATAGAGTTTTTTCTATAAATAAATTTTTGAGTTAAAAAATATTATTAGCCTGACCAAACTCTTTTTATTTCTTTAAACTATGACAGTAAGATCTAAATTTTAATAAACCAATGTTTATTTAATATTTTCAGAAATGGGCTAAAAATGACTAGTTGTTGTATGTGTTTCCTTTGAATAAAAGCTCAACAAACAAAAACTAGAAGTCATTATGTAAAAAAACTAATGACATAGTATTAGGTATTTTTTGCAAATTATTCACACATGTTGCCAAAAGTTGTTTTTTATATTATATGTTTGGTCAGCGAAAACGGTTTAAAGCACTCTCTCTTTCCTCTCGCCTTCCTTTGATGATCCTTTTTAGTTCCCTTCTTCTCATTGCTCTTGAGACCATCTCCGAACTCAAAGGAAACTAGAAACA

Experiments:
[1] = test system: transgenic Arabidopsis thaliana plant body (luciferase reporter gene); assay: luciferase assay of promoter::LUC transgenic plants after environmental stress application; format: in vivo; settings: for Tissue in which specific induction of expression is realized / time after stress application at which activity to induce gene expression is exhibited: Dehydration stress; for time after stress application at which activity to induce gene expression is lowered: dehydration stress, stem and leaf tissue; for Tissue allowing specific induction: summary over stress types
Protocol: Specifically, promoter regions were isolated from these genes, transgenic plants in which luciferase reporter genes were to be expressed under the control of such promoters were prepared, and tissue specificity of the promoters was inspected via luciferase assay.
In this example, DNA fragments containing promoter regions of the genes identified in Example 1 were recovered via PCR.
The nucleotide sequences of the amplified DNA fragments were determined in accordance with a conventional technique to confirm that mutagenesis, such as substitution or deletion, was not introduced thereinto. After the absence of mutagenesis was confirmed, the recovered DNA fragments were introduced into the vector for promoter analysis (i.e., a vector prepared by introducing the Gateway recombinant sequence (tradename: Gateway Vector Conversion System, Invitrogen) and the luciferase reporter gene into the pGreen vector (Plant Molecular Biology 42: 819-832, 2000)) using the Gateway recombination system to construct a recombinant vector.
The recombinant vector prepared in (1) above was introduced into a plant via Agrobacterium infection. When a gene is introduced via Agrobacterium infection, a process of infecting a plant with Agrobacterium containing a plasmid comprising the target gene construct is necessary. This process was carried out via vacuum infiltration. Specifically, a plant body of Arabidopsis thaliana that had been grown in soil comprising vermiculite and an equivalent amount of pearlite was soaked in a culture solution of Agrobacterium containing the recombinant vector prepared in (1). The resultant was placed in a desiccator, suctioned with a vacuum pump to 65 to 70 mmHg, and then allowed to stand at room temperature for 5 to 10 minutes. The pot was transferred onto a tray, covered with a wrap, and kept moistened. The wrap was removed on the following day, the plant was allowed to grow in that state, and seeds were then harvested.
Subsequently, seeds were sown on MS agar medium to which antibiotic hygromycin has been added in order to select an individual having the recombinant vector prepared in (1). Arabidopsis thaliana that had been grown in this medium was transferred to a pot and allowed to grow therein. Thus, seeds of transgenic plants to which the recombinant vector prepared in (1) has been introduced were obtained.
The seeds of the transgenic plant lineage prepared in (2) were sowed on MS agar medium. The plant body 10 days after sowing was used for luciferase assay.
At the outset, 1 mM luciferin (containing 0.01% Triton-X) was sprayed over the entire plant body 5 times. After the plant body was allowed to stand in the dark for 5 minutes, luciferase luminescence was assayed using ARGUS (assay after treatment for 0 hours). Subsequently, various types of environmental stresses were applied (see below). Low-temperature stress application was carried out by introducing a plate containing a plant body into a low-temperature chamber (4° C.). Dehydration stress application was carried out by capturing the plant body with forceps while refraining from damaging the plant body, roughly removing moisture from the plant body on a Kim Towel, placing the plant body on another plate, placing the plate in a clean bench while leaving the lid open, letting it stand for 2 hours, and then closing the lid. Salt stress application was carried out by dispensing a mixture of MS medium (containing 1% sucrose, 0.1% agar, and 1 mM luciferin) with 250 mM NaCl to the roots of the plant bodies (200 μl per plant body) using a Pipetman. ABA stress application was carried out by dispensing a mixture of MS medium (containing 1% sucrose, 0.1% agar, and 1 mM luciferin) with 100 μM ABA to the roots of the plant bodies (200 μl per plant body) using a Pipetman.
Luciferase luminescence was assayed 2, 5, and 10 hours after the above various types of environmental stresses had been applied using the ARGUS system (Hamamatsu Photonics). […]

[2] = test system: Arabidopsis thaliana (columbia ecotype) plant body; assay: full-length cDNA microarray analysis of gene expression levels after environmental stress application; settings: in vivo
Protocol: In this example, the gene expression levels at the time of application of various types of environmental stresses were analyzed using microarrays. Specifically, the microarrays described in Seki et al., “Monitoring the expression profiles of 7000 Arabidopsis genes under drought, cold, and high-salinity stresses using a full-length cDNA microarray,” Plant J. 31: 279-292, 2002, were used, and analysis was carried out in accordance with the method similar to the method described therein. Various types of environmental stresses were applied to a plant body under the following conditions. Specifically, low-temperature stress application was carried out by introducing a plate containing a plant body into a low-temperature chamber (4° C.). Dehydration stress application was carried out by capturing the plant body with forceps while refraining from damaging the plant body, roughly removing moisture from the plant body on a Kim Towel, placing the plant body on another plate, placing the plate in a clean bench while leaving the lid open, letting it stand for 2 hours, and then closing the lid. Salt stress application was carried out by dispensing a mixture of MS medium (containing 1% sucrose, 0.1% agar, and 1 mM luciferin) with 250 mM NaCl to the roots of the plant bodies (200 μl per plant body) using a Pipetman. ABA stress application was carried out by dispensing a mixture of MS medium (containing 1% sucrose, 0.1% agar, and 1 mM luciferin) with 100 μM ABA to the roots of the plant bodies (200 μl per plant body) using a Pipetman. As a plant body to which environmental stress is to be applied, Arabidopsis thaliana (columbia ecotype), which had been cultivated on a germination medium containing Murashige and Skoog Salt, 3% sucrose, and […] for 3 weeks, was used. Cultivation conditions were determined so as to maintain the temperature in the chamber at 22° C. with a 16-hour light period and an 8-hour dark period. Total RNA was extracted from plant bodies after environmental stress application or from plant bodies to which no environmental stress had been applied using the TRIZOL Reagent (Life Technologies), and mRNA was extracted using the mRNA isolation kit (Militenyi Biotec Auburn). In accordance with the method described in the above article, mRNA samples were reversely transcribed in the presence of Cy3 dUTP or Cy5 dUTP (Amersham Pharmacia). Microarray analysis was carried out using cDNAs obtained via reverse transcription. Data obtained via microarray analysis were analyzed using the Quantarray Version 2.0 (GSI Lumonics).

Molecule	Tissue in which specific induction of expression is realized [1]	time after stress application at which activity to induce gene expression is exhibited [1]	Tissue in which specific induction of expression is realized ([1]; listed as promoter of RAFL06-16-J10)	time after stress application at which activity to induce gene expression is lowered [1]	Tissue allowing specific induction [1]	Environmental stress type to which the promoter responds [2]	Tissue in which specific induction of expression is realized ([1]; listed as promoter of RAFL07-08-I12)
B1	Stem and leaf tissue	about 2 hours	stem and leaf tissue	about 10 hours	Stem and leaf tissue	Dehydration and salt	–
B2	Stem and leaf tissue	about 2 hours	–	about 5 hours	Stem and leaf tissue	Dehydration and salt	stem and leaf tissue
